Laboratory results published in patent publication EP4713368A1 (dated 2026).

B1: Ab No. 70 (antibody, V domains shown)
VH: EVQLLESGGGLVQPGGSLRLSCAASGFTFSDYAMSWVRQAPGKERELVSIISASGGTTYYAGSVKGRFTISRDNSKNTLYLQMNSLRAEDTAVYYCAAHASGSYYLDASRDYDADYWGQGTQVTVSS
notes: HCAb format (dimer of VH-hinge-CH2-CH3, no VL, CL or CH1)
B2: Ab No. 78 (antibody, V domains shown)
VH: EVQLLESGGGLVQPGGSLRLSCAASGFTFDTYSMNWFRQAPGKERELVSAISGVGSTYYADSVKGRFTISRDNSKNTLYLQMNSLRAEDTAVYYCHARGFRLGYDFDYYWGQGTQVTVSS
notes: as for B1
B3: Ab No. 83 (antibody, V domains shown)
VH: EVQLLESGGGLVQPGGSLRLSCAASGFTFSDHSMNWYRQAPGKERELVSAISGSGGSTYYADSVKGRFTISRDNSKNTLYLQMNSLRAEDTAVYYCNARRYQSSGGDVWGQGTQVTVSS
notes: as for B1
B4: Ab No. 61 (antibody, V domains shown)
VH: EVQLLESGGGLVQPGGSLRLSCAASGFTFDHYAMSWVRQAPGKGLEWVSAISASGDETYYADSVKGRFTISRDNSKNTLYLQMNSLRAEDTAVYYCARDSPHMATYKSYYYYGMDVWGQGTTVTVSS
VL: DIVMTQSPDSLAVSLGERATINCKSSQSLLNARTGKNYLAWYQQKPGQPPKLLIYWASTRESGVPDRFSGSGSGTDFTLTISSLQAEDVAVYYCKQSYSLRTFGGGTKVEIK
notes: IgG format
B5: Ab No. 60 (antibody, V domains shown)
VH: EVQLLESGGGLVQPGGSLRLSCAASGFTFDNYAMSWVRQAPGKGLEWVSAISADAGQTYYADSVKGRFTISRDNSKNTLYLQMNSLRAEDTAVYYCARDSPHMATYKSYYYYGMDVWGQGTTVTVSS
VL: DIVMTQSPDSLAVSLGERATINCKSSQSLLNARTGKNYLAWYQQKPGQPPKLLIYWASTRESGVPDRFSGSGSGTDFTLTISSLQAEDVAVYYCKQSYSLRTFGGGTKVEIK
notes: IgG format; also called ADI-83102
B6: Ab No. 68 (antibody, V domains shown)
VH: EVQLVESGGGLVQPGGSLRLSCAASGFTFQSYAMNWVRQAPGKGLEWVSYISDDASTIYYADSVKGRFTISRDNAKNSLYLQMNSLRAEDTAVYYCAREVHRGWGAFDIWGQGTMVTVSS
VL: DIVMTQSPDSLAVSLGERATINCKSSQSLLNARTGKNYLAWYQQKPGQPPKLLIYWASTRESGVPDRFSGSGSGTDFTLTISSLQAEDVAVYYCKQSYSLRTFGGGTKVEIK
notes: IgG format
B7: Ab No. 28a (antibody, V domains shown)
VH: EVQLLESGGGLVQPGGSLRLSCAASGFTFGSYAMHWVRQAPGKGLEWVSAISGSGQSTDYADSVKGRFTISRDNSKNTLYLQMNSLRAEDTAVYYCVRGYRLVGILTGSHFDYWGQGTLVTVSS
VL: DIQMTQSPSTLSASVGDRVTITCRASQSIGSWLAWYQQKPGKAPKLLIYKASSLESGVPSRFSGSGSGTEFTLTISSLQPDDFATYYCQQYNILPPTFGGGTKVEIK
notes: derived from Ab No. 28 by modifying VH CDRs, VL unchanged; IgG format
B8: Ab No. 28e (antibody, V domains shown)
VH: EVQLLESGGGLVQPGGSLRLSCAASGFTFGRYAMSWVRQAPGKGLEWVSAISGDAGSTFYADSVKGRFTISRDNSKNTLYLQMNSLRAEDTAVYYCVRGYRLVGILTGSHFDYWGQGTLVTVSS
VL: DIQMTQSPSTLSASVGDRVTITCRASQSIGSWLAWYQQKPGKAPKLLIYKASSLESGVPSRFSGSGSGTEFTLTISSLQPDDFATYYCQQYNILPPTFGGGTKVEIK
notes: as for B7
B9: Ab No. 28d (antibody, V domains shown)
VH: EVQLLESGGGLVQPGGSLRLSCAASGFTFDAYAMSWVRQAPGKGLEWVSAISGSGVRTYYADSVKGRFTISRDNSKNTLYLQMNSLRAEDTAVYYCVRGYRLVGILTGSHFDYWGQGTLVTVSS
VL: DIQMTQSPSTLSASVGDRVTITCRASQSIGSWLAWYQQKPGKAPKLLIYKASSLESGVPSRFSGSGSGTEFTLTISSLQPDDFATYYCQQYNILPPTFGGGTKVEIK
notes: as for B7
B10: Ab No. 28b (antibody, V domains shown)
VH: EVQLLESGGGLVQPGGSLRLSCAASGFTFSKYQMSWVRQAPGKGLEWVSAISGTGESTDYADSVKGRFTISRDNSKNTLYLQMNSLRAEDTAVYYCVRGYRLVGILTGSHFDYWGQGTLVTVSS
VL: DIQMTQSPSTLSASVGDRVTITCRASQSIGSWLAWYQQKPGKAPKLLIYKASSLESGVPSRFSGSGSGTEFTLTISSLQPDDFATYYCQQYNILPPTFGGGTKVEIK
notes: as for B7
B11: Ab No. 28c (antibody, V domains shown)
VH: EVQLLESGGGLVQPGGSLRLSCAASGFPFSAYGMSWVRQAPGKGLEWVSAISGSGGNTDYADSVKGRFTISRDNSKNTLYLQMNSLRAEDTAVYYCVRGYRLVGILTGSHFDYWGQGTLVTVSS
VL: DIQMTQSPSTLSASVGDRVTITCRASQSIGSWLAWYQQKPGKAPKLLIYKASSLESGVPSRFSGSGSGTEFTLTISSLQPDDFATYYCQQYNILPPTFGGGTKVEIK
notes: as for B7
B12: Ab No. 28f (antibody, V domains shown)
VH: EVQLLESGGGLVQPGGSLRLSCAASGFTFSTYGMNWVRQAPGKGLEWVSAISGSGLNTYYADSVKGRFTISRDNSKNTLYLQMNSLRAEDTAVYYCVRGYRLVGILTGSHFDYWGQGTLVTVSS
VL: DIQMTQSPSTLSASVGDRVTITCRASQSIGSWLAWYQQKPGKAPKLLIYKASSLESGVPSRFSGSGSGTEFTLTISSLQPDDFATYYCQQYNILPPTFGGGTKVEIK
notes: as for B7
B13: Ab No. 21c (antibody, V domains shown)
VH: QVQLVQSGAEVKKPGSSVKVSCKASGGTFSGYAISWVRQAPGQGLEWMGGIIPISATANYAQKFQGRVTITADESTSTAYMELSSLRSEDTAVYYCTRDLGFGAIRDTWGQGTLVTVSS
VL: EIVLTQSPATLSLSPGERATLSCRASQSVSSYLAWFQQKPGQAPRLLIYDASNRATGIPARFSGSGSGTDFTLTISSLEPEDFAVYYCQQSLNLPITFGGGTKVEIK
notes: derived from Ab No. 21 by modifying VH CDRs, VL unchanged; IgG format
B14: Ab No. 21f (antibody, V domains shown)
VH: QVQLVQSGAEVKKPGSSVKVSCKASGGTFGGYAISWVRQAPGQGLEWMGGIIPISATAFYAQKFQGRVTITADESTSTAYMELSSLRSEDTAVYYCTRDLGFGAIRDTWGQGTLVTVSS
VL: EIVLTQSPATLSLSPGERATLSCRASQSVSSYLAWFQQKPGQAPRLLIYDASNRATGIPARFSGSGSGTDFTLTISSLEPEDFAVYYCQQSLNLPITFGGGTKVEIK
notes: as for B13
B15: Ab No. 21d (antibody, V domains shown)
VH: QVQLVQSGAEVKKPGSSVKVSCKASGGTFSTYAISWVRQAPGQGLEWMGGIIPISGTANYAQKFQGRVTITADESTSTAYMELSSLRSEDTAVYYCTRDLGFGAIRDTWGQGTLVTVSS
VL: EIVLTQSPATLSLSPGERATLSCRASQSVSSYLAWFQQKPGQAPRLLIYDASNRATGIPARFSGSGSGTDFTLTISSLEPEDFAVYYCQQSLNLPITFGGGTKVEIK
notes: as for B13
B16: Ab No. 21e (antibody, V domains shown)
VH: QVQLVQSGAEVKKPGSSVKVSCKASGGTFDNYAISWVRQAPGQGLEWMGGIIPISGTAIYAQKFQGRVTITADESTSTAYMELSSLRSEDTAVYYCTRDLGFGAIRDTWGQGTLVTVSS
VL: EIVLTQSPATLSLSPGERATLSCRASQSVSSYLAWFQQKPGQAPRLLIYDASNRATGIPARFSGSGSGTDFTLTISSLEPEDFAVYYCQQSLNLPITFGGGTKVEIK
notes: as for B13

molecular target: T1, human CD28 (human, UniProt P10747 19-152, limits assumed); assay: selection from yeast-presented heavy chain-only libraries (HCAb format)
T1 construct: also called Cluster of Differentiation 28; Tp44

Binding result, binds:
B1, B2, B3

molecular target: T1, human CD28; assay: selection from yeast-presented libraries of heavy chains and CD3-binding light chains

Binding result, binds:
B4, B5, B6

molecular target: T1, human CD28; assay: affinity maturation of CD28-binding antibodies (Example 10: Discovery of Additional Antibodies that Bind to CD28)

Binding result, binds:
B7, B8, B9, B10, B11, B12, B13, B14, B15, B16
